The text below walks through data of FireProtDB (doi:10.1016/j.bpc.2007.12.006).

Values joined by “and” are separate entries in the source; they are usually repeats but may differ in a detail not shown here. Identical values can stand only once.

The conditions of this data set: CD, reversible: Yes, whole UniProt chain shown; for unfolding free energy: 25 °C; for heat capacity change of unfolding: Thermal.

B1: Alpha-lactalbumin wild type, P00711 (protein)
chain: MMSFVSLLLVGILFHATQAEQLTKCEVFRELKDLKGYGGVSLPEWVCTTFHTSGYDTQAIVQNNDSTEYGLFQINNKIWCKDDQNPHSSNICNISCDKFLDDDLTDDIMCVKKILDKVGINYWLAHKALCSEKLDQWLCEKL
Turning to B1, the unfolding free energy reads like this: (Bos taurus, pH 7, GdnHCl, Cacodylic acid 0.05 M, NaCl 0.1 M) 2.41 kcal/mol; (Bos taurus, pH 7, Urea, Cacodylic acid 0.05 M, NaCl 0.1 M) 2.35 kcal/mol. Further, the “heat capacity change of unfolding” value (Bos taurus, pH 7, Cacodylic acid 0.05 M, NaCl 0.1 M) is 2.15 kcal/mol/K and 2 kcal/mol/K.

B2: Guanyl-specific ribonuclease T1 wild type, P00651 (protein)
chain: MMYSKLLTLTTLLLPTALALPSLVERACDYTCGSNCYSSSDVSTAQAAGYQLHEDGETVGSNSYPHKYNNYEGFDFSVSSPYYEWPILSSGDVYSGGSPGADRVVFNENNQLAGVITHTGASGNNFVECT
With B2, the unfolding free energy reads like this: (Aspergillus oryzae (strain ATCC 42149 / RIB 40), pH 2.2, GdnHCl, Glycine-HCl 0.1 M, KCl 0.1 M) 2.72 kcal/mol; (Aspergillus oryzae (strain ATCC 42149 / RIB 40), pH 2.2, Urea, Glycine-HCl 0.1 M, KCl 0.1 M) 2.77 kcal/mol. For the same protein, the “heat capacity change of unfolding” value (Aspergillus oryzae (strain ATCC 42149 / RIB 40), pH 2.2, Glycine-HCl 0.1 M, KCl 0.1 M) is 2.5 kcal/mol/K and 2.65 kcal/mol/K.
